Results taken from the supplement of paper PMC9170038.

How the values were obtained:
MS2 coat protein [1] = assay: apparent KD of MS2 coat protein, switch ON state; designed switch direction (-1 OFF switch, 1 ON switch): -1; higher = weaker reporter binding; conditions: FMN input: 0 or 200 uM; Eterna round: R93 (includes R88 designs)
Procedure, shortened: (§1)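 Apparent KD was obtained for each design as the median of normalised binding-curve fits over its clusters. RNA switches transcribed on-chip from Illumina sequencing clusters were titrated with SNAP-549-labelled MS2 coat protein (twofold steps, 0.7 or 1.5 nM to 3 µM) in 100 mM Tris-HCl pH 7.5, 80 mM KCl, 4 mM MgCl2, without or with constant ligand.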

MS2 coat protein [2] = assay: apparent KD of MS2 coat protein, switch OFF state (with FMN for OFF switches, without FMN for ON switches); designed switch direction (-1 OFF switch, 1 ON switch): -1; higher = weaker reporter binding; conditions: FMN input: 0 or 200 uM; Eterna round: R93 (includes R88 designs)
Procedure, shortened: as §1

MS2 coat protein [3] = assay: apparent KD of MS2 coat protein; designed switch direction (-1 OFF switch, 1 ON switch): 1; higher = weaker reporter binding
Procedure, shortened: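 Designed RNA switches were transcribed on Illumina chips by stalled E. coli RNA polymerase and titrated with SNAP-549-labelled MS2 coat protein from 0.7 or 1.5 nM, doubling to 3 µM. Step length ran from 0.8–1.5 h at the lowest concentration to 10–20 min at the highest. The apparent KD is the median over clusters for each design, from curve-fitted normalised cluster fluorescence.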

[4] = Eterna round: R95, input ligand: FMN 200 uM
[5] = Eterna round: R95, input ligand: microRNA oligo, concentration not stated
[6] = Eterna round: R95, input ligand: none
[7] = input ligand: microRNA oligo, concentration not stated

Row | Sequence | apparent KD of MS2 coat protein (MS2 coat protein [1]) [nM] | apparent KD of MS2 coat protein (MS2 coat protein [2]) [nM] | other results
1 | AGAAACGUAGGAUAUACAUGAGGAUCACCCAUGUAAAGAAAGAAGGGAGCCACAAGAAGUAGAAGGACGAAGAA [JR_Exc003_Sub004] | 33.4 | 131 | 
2 | AACAGUACAGGAUAUACAUGAGGAUCACCCAUGUGAGAAUUAAGUGGAGUACCACAAAGUAGAAGGGUACUGGA [Mat - Exclusion 3 - JL mod - D4] | 28.9 | 202 | 
3 | AAAGACAGAGGAUAUACAUGAGGAUCACCCAUGUGGCGAAAAAAAAUCCAUUUGGCAUGUAGAAGGCUGUAUGA [Orerzadi] | 66.9 | 51.3 | 
4 | AAAGAUGGAGGAUAUACAUGAGGAUCACCCAUGUGGAAAAAAAAUUGGGAAAAAGAAAGUAGAAGGCCAAAAAA [Ex 3 May 42] | 48.1 | 155 | 
5 | AAGAAACAUGAGGAUCACCCAUGUGAGGAUAUAGAAAAGAAAAGAAAAGAAAGAAGAACUAGAAGGCACAAAGG [Neferkare (IV) Khendu] | 31.1 | 28.8 | 
6 | AACAAACAUGAGGAUCACCCAUGUGAGGAUAUACAAACAAACAAAAACAAAACAAAAAGUAGAAGGCACAACAA [JR_Exc001_Sub002] | 19.4 | 18.9 | 
7 | AAAAAACAUGAGGAUCACCCAUGUCAGGAUAUCUGUAUUCAAUCCUCGGAUUGAAUACAGAGAAGGGACAUAAA [Ex1: 605] | 46.2 | 126 | 
8 | GAAAAGGCAGGAUAUGCAGGAUAUAGAAGGAGGAUAUAGAGACAUGAGGAUCACCCAUGUAGAAGGGCCAAAAG [salish99-ex2-11] | 42.6 | 32.3 | 
9 | AAAAAGUCAGGAUAUGCGAAGGCGUCUGAUAGACGAGGCUAGCAGAAGGGACAUGAGGAUCACCCAUGUAAAAA [Mat - Exclusion 4 - Rerun - D81] | 50.5 | 45 | 
10 | AAAAAGCGAGGAUAUGCAAGAAAAAAAAAAAAAAAAAAGGGACAUGAGGAUCACCCAUGUAGAAGGCGCAAAAA [Diamond 65] | 54.9 | 38 | 
11 | UAAAAUAAAGGAUAUAAAACAGAGGAUAUACAUAAAUAAAAACAUGAGGAUCACCCAUGUAGAAGGCUGAAAAU [Meechl Ex2 R2 m1] | 29 | 28.4 | 
12 | AAAAGGGCAGGAUAUGCAUGUUGGCAAAAUUCUCAUCAAACACAUGAGGAUCACCCAUGUAGAAGGGCCAACGG [Inonenonat] | 110 | 161 | 
13 | AACGUACAUGAGGAUCACCCAUGUUAGGAUAUAUAUACAGGAAAACAUUCUAAUGUAAAUAGAAGGAACGAAAA [Bilbo Confounded 21 - Jieux - Exclusion 1] | 17.1 | 10.8 | 
14 | AAAAAACAUGAGGAUCACCCAUGUGAGGAUAUGCGAAAAUAAAAUAAAAUAAUAAAAAGCAGAAGGCACAAAAA [58%, Sh'dynasty, 1] | 67.7 | 89.3 | 
15 | CCUGUGUGAGGAUAUGGUAUAAAAAAAAAAAAAUAGCUCCUCCAGAAGGCACAUGAGGAUCACCCAUGUCGUGG [Jolly's Folly 17 - Jieux - Exclusion 4] | 26.9 | 57.1 | 
16 | AACAGUACAGGAUAUACAUGAGGAUCACCCAUGUGAAAAUUAAGUGGCGAACCACAGUGUAGAAGGGUACUGGA [Mat - Exclusion 3 - Eli mod - D51] | 81.8 | 33.5 | 
17 | AGCUAGUCAGGAUAUACGAGAAUGAAAGAAGACGUGAAGGGACAUGAGGAUCACCCAUGUAGAAGGGACUAGCA [Diamond 25] | 36.1 | 80.3 | 
18 | GAAUGACUAGGAUAUACAUGAGGAUCACCCAUGUGUUAAAAUAAAUACACAAAAGAAAGUAGAAGGAGUCAAAG [Mat - Exclusion 3 - Mayanna mod - D126] | 21 | 50.3 | 
19 | AAGGUACGAGGAUAUACAUAGAUACAGACACAUGUACAUGUACAUGAGGAUCACCCAUGUAGAAGGCGUAUAUA [AJ 19] | 86.1 | 69.7 | 

Row | Sequence | apparent KD of MS2 coat protein (MS2 coat protein [1]) [nM] | apparent KD of MS2 coat protein (MS2 coat protein [2]) [nM] | other results
20 | AGCUAGUCAGGAUAUACGAACAUGUCAAAAGACGAGAAGGGACAUGAGGAUCACCCAUGUAGAAGGGACUAGCA [Diamond 21] | 87.5 | 198 | 
21 | AAGGGACAUGAGGAUCACCCAUGUCAGGAUAUGCAAACAACAAACAACAAACAACAAAGCAGAAGGGACAAAAA [63%, Olong, 5] | 29.1 | 24.1 | 
22 | UAAAGACAUGAGGAUCACCCAUGUGAGGAUAUCGGUGACUAUAAAAAAAAAUAGUCACCGAGAAGGCACAGAAA [JR_Exc001_Sub301] | 43.2 | 117 | 
23 | AAAAAACAUGAGGAUCACCCAUGUAAGGAUAUGUAAAAUAAAAGAAAAAUAAAGAAAAGCAGAAGGUACAUGAA [JL wbt mod 14] | 37 | 60.5 | 
24 | AAAGAGCAAGGAUAUACAUGAGGAUCACCCAUGUAUGGAGAUACAAAACAAAAGAUCAGUAGAAGGUGCGGAUG [Rageleor] | 20.3 | 26.3 | 
25 | UAUAGACAUGAGGAUCACCCAUGUGAGGAUAUCAGUGACUACAGGACAUCACGUACAAUGAGAAGGCACAGAAA [JR_Exc001_Sub015] | 34.7 | 45.2 | 
26 | CAGAGACAUGAGGAUCACCCAUGUUAGGAUAUGCGUGAAAGAAAAAAAAAGUUAAAAAGCAGAAGGAACAGAGG [JR_Exc001_Sub310] | 152 | 33.6 | 
27 | CAGUACUGAGGAUAUACAUGAGGAUCACCCAUGUGAAAAAGCUACGAAAGUAGCACAUGUAGAAGGCAGUACUG [Ex3: 807] | 319 | 281 | 
28 | AGCGAAAUAAGCAAGGAUAUGUAAUUUGGCACAUGAGGAUCACCCAUGUCAAUCCAUUUUUUUGAACAGAAGGUGCAUUUUUUUU [ak second] (puzzle: Same State 2) |  |  | apparent KD of MS2 coat protein (MS2 coat protein [3]; [4]): 48.6 nM; apparent KD of MS2 coat protein (MS2 coat protein [3]; [5]): 53.5 nM; apparent KD of MS2 coat protein (MS2 coat protein [3]; [6]): 45.4 nM
29 | CCAUAACUGUGAGGAUAUUGUUGCGUUUAGUGACGAGAAGGCAUUCAUGUGAUAUAUACAUACAUGAGGAUCACCCAUGUUGUA [NG 1 30P] (Eterna round: R96, puzzle: Same State NG 1) |  |  | apparent KD of MS2 coat protein (MS2 coat protein [3]; [7]): 21.4 nM
30 | UUAUUAUUUACAUGAGGAUCACCCAUGUUUUUAUGUCAGAGAUAGGAUAUAGUAGUCUCGUUUUACUAGAAGGAUCUUUUUAUU [JR_SSNG3_Sub084] (Eterna round: R96, puzzle: Same State NG 3) |  |  | apparent KD of MS2 coat protein (MS2 coat protein [3]; input ligand: FMN 200 uM): 13.4 nM; apparent KD of MS2 coat protein (MS2 coat protein [3]; [7]): 15.8 nM; apparent KD of MS2 coat protein (MS2 coat protein [3]; input ligand: none): 19.9 nM
31 | AUACAUGAGGAUCACCCAUGUAAUUAAUUAAUUAAUAAGAUCAAGGAUAUCAGCUCGAUUAGAGCUGAGAAGGUGAUCACAUGU [SSNG3/21-D2] (Eterna round: R96, puzzle: Same State NG 3) |  |  | apparent KD of MS2 coat protein (MS2 coat protein [3]; [7]): 272 nM
32 | AGUCCAGCCUGAGCUGGACAAAAGCAUGUACAUGAGGAUCACCCAUGUUCAUGUACAAGCUUUUUGCUCGUCUUGCG [salish99_208a_r3_106x] (puzzle: Sensor for hsa-mir-208a) |  |  | apparent KD of MS2 coat protein (MS2 coat protein [3]; [4]): 641 nM; apparent KD of MS2 coat protein (MS2 coat protein [3]; [5]): 17.3 nM; apparent KD of MS2 coat protein (MS2 coat protein [3]; [6]): 867 nM
33 | GUGGUCAAUCAAGGAUAUGGAGCCUUAUUGGCUCCAGAAGGUGGGACAUGAGGAUCACCCAUGUGGCAGUGGUAAAAUGACCAC [Fiskers NG1ss - 37] (Eterna round: R96, puzzle: Same State NG 1) |  |  | apparent KD of MS2 coat protein (MS2 coat protein [3]; input ligand: FMN 200 uM): 35.6 nM; apparent KD of MS2 coat protein (MS2 coat protein [3]; [7]): 56.8 nM; apparent KD of MS2 coat protein (MS2 coat protein [3]; input ligand: none): 63.4 nM
34 | GAGGGACAGACCAACAUGAGGAUCACCCAUGUCCUCGCAGGUCAGGAUAUCCGUCCAACAGGCAAGGAGAAGGGACGGUGAACC (Eterna round: R96, puzzle: Same State NG 3) |  |  | apparent KD of MS2 coat protein (MS2 coat protein [3]; input ligand: FMN 200 uM): 522 nM; apparent KD of MS2 coat protein (MS2 coat protein [3]; [7]): 1200 nM; apparent KD of MS2 coat protein (MS2 coat protein [3]; input ligand: none): 724 nM
35 | GGUAGGUUACUACCAAACAUGAGGAUCACCCAUGUAAAUGGGAAGGAUAUGGUACCUAUUUGGUACCAGAAGGUCCAAAUAAUU [Mat - Same State NG 3 - JL Mod - D95] (Eterna round: R96, puzzle: Same State NG 3) |  |  | apparent KD of MS2 coat protein (MS2 coat protein [3]; input ligand: FMN 200 uM): 180 nM; apparent KD of MS2 coat protein (MS2 coat protein [3]; [7]): 327 nM; apparent KD of MS2 coat protein (MS2 coat protein [3]; input ligand: none): 1410 nM
36 | AGUCCAGCCUGAGCUGGACAAGAGCAUGUACAUGAGGAUCACCCAUGUCAUGUACAAGCUUUUUGCUCGUCUUAAAA [Zipper 46 - 2] (puzzle: Sensor for hsa-mir-208a) |  |  | apparent KD of MS2 coat protein (MS2 coat protein [3]; [4]): 493 nM; apparent KD of MS2 coat protein (MS2 coat protein [3]; [5]): 14.3 nM; apparent KD of MS2 coat protein (MS2 coat protein [3]; [6]): 478 nM
37 | AAGAAAGACGCAGGAUAUCAGUGCAAACCGCACUGAGAAGGGUGAGACAUGAGGAUCACCCAUGUAACACGGCAAAACACCGUG [Teinre] (Eterna round: R96, puzzle: Same State NG 1) |  |  | apparent KD of MS2 coat protein (MS2 coat protein [3]; input ligand: FMN 200 uM): 1240 nM; apparent KD of MS2 coat protein (MS2 coat protein [3]; [7]): 49.3 nM; apparent KD of MS2 coat protein (MS2 coat protein [3]; input ligand: none): 191 nM
38 | GGUGGGUUACUACCCACACAUGAGGAUCACCCAUGUAUUGGGAAGGAUAUGGUGCCUAUUUGGUACCAGAAGGUCCUGAAGGUG [SS-NG3-LRO17] (Eterna round: R96, puzzle: Same State NG 3) |  |  | apparent KD of MS2 coat protein (MS2 coat protein [3]; input ligand: FMN 200 uM): 980 nM; apparent KD of MS2 coat protein (MS2 coat protein [3]; [7]): 571 nM; apparent KD of MS2 coat protein (MS2 coat protein [3]; input ligand: none): 1770 nM
